Laboratory results as given in the supplement of paper PMC10126150.
± gives the standard deviation of the averaged measurements.

Tested on: ATP
Experiment: switch fluorescence ratio, 500 uM ATP over buffer (Cy3 cluster intensity, sum of 5 cycles each) (fold (ratio)); higher = stronger signal-on switching upon ATP binding; sequences stand for … in TCGTCGGCAGCGTCAGATGTGTATAAGAGACAGTTTTTTTTTTTTTTTTTTTTTTTTT…TC
Settings: aptamer strand: ATP DNA aptamer (quencher-CACCTGGGGGAGTATTGCGGAGGAAGG + anchor), 100 nM annealed; ATP concentration: 500 uM
Outline: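 The fluorescence ratio divides summed target-cycle Cy3 intensity by summed buffer-cycle Cy3 intensity for each cluster and is averaged per switch-domain sequence. Cy3-labelled switching-strand clusters on a modified Illumina MiSeq flow-cell were annealed to 100 nM quencher-labelled ATP aptamer, then imaged in selection buffer and again after 15 min with 500 uM ATP at 22 °C. Five such cycles were run, with NaOH stripping and re-annealing between them, and clusters outside 100-1000 RFU were excluded.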
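Also: ATP exposure 15 min at 22 °C before imaging.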

**Q.** For AGGGGATGCT, which switch fluorescence ratio is on record?
**A.** The switch fluorescence ratio was 1.01 ± 0.016.

**Q.** With GCTATGAAAA as the sequence, how does the switch fluorescence ratio read?
**A.** Its switch fluorescence ratio is 0.986 ± 0.028.

**Q.** Which switch fluorescence ratio does the source give for AAGGAGACTA here?
**A.** Its switch fluorescence ratio is 1.02 ± 0.05.

**Q.** Which switch fluorescence ratio does the source give for AGTAAAGTGT here?
**A.** The switch fluorescence ratio was 0.99703 ± 0.00028.

**Q.** How did the switch fluorescence ratio turn out when GTTGTGCGTA was run?
**A.** Its switch fluorescence ratio is 0.994 ± 0.031.

**Q.** How did the switch fluorescence ratio turn out when CAGAAAAAAT was run?
**A.** The switch fluorescence ratio was 0.978 ± 0.038.

**Q.** TTTTTGAAGA was tested. Which switch fluorescence ratio did it give?
**A.** Its switch fluorescence ratio is 0.986 ± 0.046.

**Q.** Which switch fluorescence ratio does the source give for TAAATCGTGC here?
**A.** The switch fluorescence ratio was 1.022 ± 0.0064.

**Q.** For AGGCGCTAT, which switch fluorescence ratio is on record?
**A.** Its switch fluorescence ratio is 1.04 ± 0.021.

**Q.** With ATTGCAGCTG as the sequence, how does the switch fluorescence ratio read?
**A.** Its switch fluorescence ratio is 0.9637 ± 0.0015.

**Q.** With AGAGTATTTA as the sequence, how does the switch fluorescence ratio read?
**A.** The switch fluorescence ratio was 0.991 ± 0.011.

**Q.** Which switch fluorescence ratio does the source give for TCATCCCTAT here?
**A.** Its switch fluorescence ratio is 1.1 ± 0.15.

**Q.** CCAGATATCA was tested. Which switch fluorescence ratio did it give?
**A.** The switch fluorescence ratio was 0.999 ± 0.054.

**Q.** How did the switch fluorescence ratio turn out when TTGAGTAACT was run?
**A.** Its switch fluorescence ratio is 0.967 ± 0.024.

**Q.** Which switch fluorescence ratio does the source give for TTTTGCTTTC here?
**A.** The switch fluorescence ratio was 1.14 ± 0.1.

**Q.** With GGGGCGGGCA as the sequence, how does the switch fluorescence ratio read?
**A.** The switch fluorescence ratio was 1.03 ± 0.043.

**Q.** Which switch fluorescence ratio does the source give for TTAAGATTCC here?
**A.** The switch fluorescence ratio was 1.1 ± 0.028.

**Q.** ATGGGTCTT was tested. Which switch fluorescence ratio did it give?
**A.** The switch fluorescence ratio was 1.01 ± 0.023.

**Q.** GCAGCCGGGT was tested. Which switch fluorescence ratio did it give?
**A.** The switch fluorescence ratio was 0.991 ± 0.022.

**Q.** How did the switch fluorescence ratio turn out when GTAGTGGCGA was run?
**A.** Its switch fluorescence ratio is 1.04 ± 0.026.

**Q.** How did the switch fluorescence ratio turn out when ATTGATGTCC was run?
**A.** The switch fluorescence ratio was 0.976 ± 0.0098.

**Q.** TTCAGAGGGG was tested. Which switch fluorescence ratio did it give?
**A.** The switch fluorescence ratio was 0.997 ± 0.033.

**Q.** For CCCGCGGTGT, which switch fluorescence ratio is on record?
**A.** The switch fluorescence ratio was 2.41 ± 0.19.

**Q.** With AGTTTTTAAA as the sequence, how does the switch fluorescence ratio read?
**A.** Its switch fluorescence ratio is 1.027 ± 0.0039.

**Q.** With GCGACGGGCG as the sequence, how does the switch fluorescence ratio read?
**A.** Its switch fluorescence ratio is 0.972 ± 0.044.

**Q.** For TCGGACGGGC, which switch fluorescence ratio is on record?
**A.** The switch fluorescence ratio was 1.26 ± 0.18.

**Q.** Which switch fluorescence ratio does the source give for CTGGTTTATA here?
**A.** Its switch fluorescence ratio is 0.962 ± 0.027.

**Q.** How did the switch fluorescence ratio turn out when GGTTAACCTG was run?
**A.** Its switch fluorescence ratio is 0.9959 ± 0.0062.

**Q.** For AGCGATTATA, which switch fluorescence ratio is on record?
**A.** Its switch fluorescence ratio is 0.991 ± 0.0037.

**Q.** For TCGGCGTAAG, which switch fluorescence ratio is on record?
**A.** Its switch fluorescence ratio is 0.998 ± 0.03.

**Q.** Which switch fluorescence ratio does the source give for CCCCTGGCAT here?
**A.** Its switch fluorescence ratio is 1.42 ± 0.022.

**Q.** For TCAATCGCTT, which switch fluorescence ratio is on record?
**A.** Its switch fluorescence ratio is 1.09 ± 0.026.

**Q.** Which switch fluorescence ratio does the source give for TAAGCGATCT here?
**A.** The switch fluorescence ratio was 1.0192 ± 0.00013.

**Q.** GCCGAATTTG was tested. Which switch fluorescence ratio did it give?
**A.** Its switch fluorescence ratio is 1.028 ± 0.0068.

**Q.** How did the switch fluorescence ratio turn out when GGGGATTGAG was run?
**A.** The switch fluorescence ratio was 0.973 ± 0.042.

**Q.** TGAATTAAGT was tested. Which switch fluorescence ratio did it give?
**A.** Its switch fluorescence ratio is 1.029 ± 0.003.

**Q.** With CATTATGATG as the sequence, how does the switch fluorescence ratio read?
**A.** The switch fluorescence ratio was 1.01 ± 0.013.

**Q.** For AACCTGGGCC, which switch fluorescence ratio is on record?
**A.** The switch fluorescence ratio was 1.19 ± 0.099.

**Q.** For TGGGGTAATG, which switch fluorescence ratio is on record?
**A.** Its switch fluorescence ratio is 0.995 ± 0.038.

**Q.** For CCAGCGCACG, which switch fluorescence ratio is on record?
**A.** The switch fluorescence ratio was 1.541 ± 0.014.

**Q.** With TGTGTTCACA as the sequence, how does the switch fluorescence ratio read?
**A.** Its switch fluorescence ratio is 0.98 ± 0.0058.

**Q.** With GGTTGGGTTG as the sequence, how does the switch fluorescence ratio read?
**A.** The switch fluorescence ratio was 0.987 ± 0.019.

**Q.** For AGAACTTAAG, which switch fluorescence ratio is on record?
**A.** The switch fluorescence ratio was 1.01 ± 0.037.

**Q.** Which switch fluorescence ratio does the source give for TGGGACATGG here?
**A.** Its switch fluorescence ratio is 0.995 ± 0.031.

**Q.** How did the switch fluorescence ratio turn out when ATGCTGGGGT was run?
**A.** Its switch fluorescence ratio is 0.986 ± 0.021.

**Q.** How did the switch fluorescence ratio turn out when TTGGTGGAAT was run?
**A.** The switch fluorescence ratio was 1.06 ± 0.093.

**Q.** With GCGAGCGGGT as the sequence, how does the switch fluorescence ratio read?
**A.** The switch fluorescence ratio was 1 ± 0.016.

**Q.** How did the switch fluorescence ratio turn out when TATTGGGTGA was run?
**A.** The switch fluorescence ratio was 0.99228 ± 0.00097.

**Q.** With GTTGGTGGCT as the sequence, how does the switch fluorescence ratio read?
**A.** The switch fluorescence ratio was 0.9581 ± 0.0026.

**Q.** AACCGTGTGT was tested. Which switch fluorescence ratio did it give?
**A.** Its switch fluorescence ratio is 0.994 ± 0.013.

**Q.** TGCTACACGT was tested. Which switch fluorescence ratio did it give?
**A.** The switch fluorescence ratio was 1.01 ± 0.027.

**Q.** For CATCTGGCTT, which switch fluorescence ratio is on record?
**A.** The switch fluorescence ratio was 1.0536 ± 0.00031.

**Q.** ATTTATTGGT was tested. Which switch fluorescence ratio did it give?
**A.** Its switch fluorescence ratio is 1.007 ± 0.0062.

**Q.** For CGGGGGTTCT, which switch fluorescence ratio is on record?
**A.** Its switch fluorescence ratio is 1.006 ± 0.0032.

**Q.** TTCGGTGAAG was tested. Which switch fluorescence ratio did it give?
**A.** Its switch fluorescence ratio is 1.01 ± 0.0051.

**Q.** With GAAGTATGTG as the sequence, how does the switch fluorescence ratio read?
**A.** The switch fluorescence ratio was 1.006 ± 0.0092.

**Q.** With CTTCTCGGCG as the sequence, how does the switch fluorescence ratio read?
**A.** The switch fluorescence ratio was 1.08 ± 0.053.

**Q.** AGAGGAGTTA was tested. Which switch fluorescence ratio did it give?
**A.** The switch fluorescence ratio was 0.985 ± 0.011.

**Q.** With CACAAACCAG as the sequence, how does the switch fluorescence ratio read?
**A.** Its switch fluorescence ratio is 1.34 ± 0.37.

**Q.** For TAGTGAATTT, which switch fluorescence ratio is on record?
**A.** Its switch fluorescence ratio is 1 ± 0.07.

**Q.** GACGTTGGGG was tested. Which switch fluorescence ratio did it give?
**A.** Its switch fluorescence ratio is 0.977 ± 0.01.

**Q.** TTTGATTAAT was tested. Which switch fluorescence ratio did it give?
**A.** The switch fluorescence ratio was 0.987 ± 0.011.

**Q.** Which switch fluorescence ratio does the source give for AGGGCGCTAT here?
**A.** Its switch fluorescence ratio is 1.05 ± 0.042.

**Q.** For TCATTTTGG, which switch fluorescence ratio is on record?
**A.** Its switch fluorescence ratio is 0.992 ± 0.015.

**Q.** How did the switch fluorescence ratio turn out when CGTTATGGGC was run?
**A.** The switch fluorescence ratio was 0.979 ± 0.022.

**Q.** Which switch fluorescence ratio does the source give for TTAAGATATT here?
**A.** Its switch fluorescence ratio is 0.9797 ± 0.0066.

**Q.** Which switch fluorescence ratio does the source give for GGTTTTTACA here?
**A.** Its switch fluorescence ratio is 0.981 ± 0.024.

**Q.** ATCTCACAGA was tested. Which switch fluorescence ratio did it give?
**A.** The switch fluorescence ratio was 0.989 ± 0.025.

**Q.** How did the switch fluorescence ratio turn out when GAAGTATGGG was run?
**A.** Its switch fluorescence ratio is 0.956 ± 0.024.

**Q.** With ATAGGGGGGC as the sequence, how does the switch fluorescence ratio read?
**A.** The switch fluorescence ratio was 1.01 ± 0.074.

**Q.** With GGGTAGAGGT as the sequence, how does the switch fluorescence ratio read?
**A.** Its switch fluorescence ratio is 1.003 ± 0.0062.

**Q.** How did the switch fluorescence ratio turn out when ATGCAGCAGT was run?
**A.** The switch fluorescence ratio was 1.46 ± 0.051.

**Q.** For CCGAGAGGGC, which switch fluorescence ratio is on record?
**A.** Its switch fluorescence ratio is 1.15 ± 0.092.

**Q.** For ATTCTTACCG, which switch fluorescence ratio is on record?
**A.** Its switch fluorescence ratio is 1.09 ± 0.044.

**Q.** With GACATCCGGC as the sequence, how does the switch fluorescence ratio read?
**A.** Its switch fluorescence ratio is 1.05 ± 0.036.

**Q.** Which switch fluorescence ratio does the source give for CGGGGTTGGC here?
**A.** The switch fluorescence ratio was 1.02 ± 0.061.

**Q.** TGAGTGTGTT was tested. Which switch fluorescence ratio did it give?
**A.** The switch fluorescence ratio was 0.962 ± 0.026.
